Patent publication US20150023971A1

Experiments:
[1] = biological target: T1, …; test: SPOT length analysis, dot 3, HRP-S-protein detection
T1 sequence (peptide): IFRSSDFAKNFVQTD

[2] = biological target: T2, …; test: SPOT length analysis, dot 7, HRP-S-protein detection
T2 sequence (peptide): RIFRSSDFAKNFV

[3] = biological target: T3, …; test: SPOT length analysis, dot 8, HRP-S-protein detection
T3 sequence (peptide): IFRSSDFAKNFVQ

[4] = biological target: T4, …; test: SPOT length analysis, dot 17, HRP-S-protein detection
T4 sequence (peptide): IFRSSDFAKNF

[5] = biological target: T5, …; test: SPOT length analysis, dot 18, HRP-S-protein detection
T5 sequence (peptide): FRSSDFAKNFV

[6] = biological target: T6, …; test: SPOT length analysis, dot 23, HRP-S-protein detection
T6 sequence (peptide): IFRSSDFAKN

[7] = biological target: T7, …; test: SPOT length analysis, dot 4, anti-histidine detection
T7 sequence (peptide): RIFRSSDFAKNFVQ

SSDFAKNF = biological target: T8, SSDFAKNF; test: SPOT length analysis, dot 41, HRP-S-protein detection
T8 sequence (peptide): SSDFAKNF

RSSDFAK = biological target: T9, RSSDFAK; test: SPOT length analysis, dot 49, HRP-S-protein detection
T9 sequence (peptide): RSSDFAK

[8] = biological target: T10, …; test: SPOT length analysis, dot 5, anti-histidine detection
T10 sequence (peptide): IFRSSDFAKNFVQT

DFAKNFV = biological target: T11, DFAKNFV; test: SPOT length analysis, dot 52, HRP-S-protein detection
T11 sequence (peptide): DFAKNFV

RIFRSS = biological target: T12, RIFRSS; test: SPOT length analysis, dot 56, HRP-S-protein detection
T12 sequence (peptide): RIFRSS

RSSDFA = biological target: T13, RSSDFA; test: SPOT length analysis, dot 59, HRP-S-protein detection
T13 sequence (peptide): RSSDFA

SSDFAK = biological target: T14, SSDFAK; test: SPOT length analysis, dot 60, HRP-S-protein detection
T14 sequence (peptide): SSDFAK

SDFAKN [9] = biological target: T15, SDFAKN; test: SPOT length analysis, dot 61, HRP-S-protein detection
T15 sequence (peptide): SDFAKN

DFAKNF = biological target: T16, DFAKNF; test: SPOT length analysis, dot 62, HRP-S-protein detection
T16 sequence (peptide): DFAKNF

RIFRS = biological target: T17, RIFRS; test: SPOT length analysis, dot 67, HRP-S-protein detection
T17 sequence (peptide): RIFRS

KNFVQ = biological target: T18, KNFVQ; test: SPOT length analysis, dot 76, HRP-S-protein detection
T18 sequence (peptide): KNFVQ

FVQTD = biological target: T19, FVQTD; test: SPOT length analysis, dot 78, HRP-S-protein detection
T19 sequence (peptide): FVQTD

DFAK = biological target: T20, DFAK; test: SPOT length analysis, dot 85, HRP-S-protein detection
T20 sequence (peptide): DFAK

AKNF [10] = biological target: T21, AKNF; test: SPOT length analysis, dot 87, HRP-S-protein detection
T21 sequence (peptide): AKNF

KNFV = biological target: T22, KNFV; test: SPOT length analysis, dot 88, HRP-S-protein detection
T22 sequence (peptide): KNFV

[11] = biological target: T23, …; test: SPOT length analysis, dot 9, anti-histidine detection
T23 sequence (peptide): FRSSDFAKNFVQT

[12] = biological target: T24, …; test: SPOT length analysis, dot 12, anti-histidine detection
T24 sequence (peptide): IFRSSDFAKNFV

[13] = biological target: T25, …; test: SPOT length analysis, dot 14, anti-histidine detection
T25 sequence (peptide): RSSDFAKNFVQT

[14] = biological target: T5, …; test: SPOT length analysis, dot 18, anti-histidine detection
[15] = biological target: T26, …; test: SPOT length analysis, dot 20, anti-histidine detection
T26 sequence (peptide): SSDFAKNFVQT

[16] = biological target: T27, …; test: SPOT length analysis, dot 26, anti-histidine detection
T27 sequence (peptide): SSDFAKNFVQ

[17] = biological target: T28, …; test: SPOT length analysis, dot 30, anti-histidine detection
T28 sequence (peptide): IFRSSDFAK

[18] = biological target: T29, …; test: SPOT length analysis, dot 32, anti-histidine detection
T29 sequence (peptide): RSSDFAKNF

[19] = biological target: T30, sortilin peptide … on SPOT membrane; test: SPOT length analysis, dot 36, anti-histidine detection
T30 sequence (peptide, C-terminus anchored to the cellulose membrane through a beta-alanine linker): FAKNFVQTD

[20] = biological target: T31, sortilin peptide RIFRSSDF on SPOT membrane; test: SPOT length analysis, dot 37, anti-histidine detection
T31 sequence (peptide, C-terminus anchored to the cellulose membrane through a beta-alanine linker): RIFRSSDF

FRSSDFAK = biological target: T32, FRSSDFAK; test: SPOT length analysis, dot 39, anti-histidine detection
T32 sequence (peptide): FRSSDFAK

DFAKNFVQ = biological target: T33, DFAKNFVQ; test: SPOT length analysis, dot 43, anti-histidine detection
T33 sequence (peptide): DFAKNFVQ

IFRSSDF = biological target: T34, IFRSSDF; test: SPOT length analysis, dot 47, anti-histidine detection
T34 sequence (peptide): IFRSSDF

SDFAKNF = biological target: T35, SDFAKNF; test: SPOT length analysis, dot 51, anti-histidine detection
T35 sequence (peptide): SDFAKNF

AKNFVQT = biological target: T36, AKNFVQT; test: SPOT length analysis, dot 54, anti-histidine detection
T36 sequence (peptide): AKNFVQT

SDFAKN [21] = biological target: T15, SDFAKN; test: SPOT length analysis, dot 61, anti-histidine detection
NFVQTD = biological target: T37, NFVQTD; test: SPOT length analysis, dot 66, anti-histidine detection
T37 sequence (peptide): NFVQTD

FRSSD = biological target: T38, FRSSD; test: SPOT length analysis, dot 69, anti-histidine detection
T38 sequence (peptide): FRSSD

RSSD = biological target: T39, RSSD; test: SPOT length analysis, dot 82, anti-histidine detection
T39 sequence (peptide): RSSD

AKNF [22] = biological target: T21, AKNF; test: SPOT length analysis, dot 87, anti-histidine detection
FVQT = biological target: T40, FVQT; test: SPOT length analysis, dot 90, anti-histidine detection
T40 sequence (peptide): FVQT

FAKNFV = biological target: T41, FAKNFV; test: SPOT length analysis, dot 63, HRP-S-protein detection
T41 sequence (peptide): FAKNFV

[23] = biological target: T42, sortilin 4-mer peptide RIFR (length analysis); test: SPOT length analysis, dot 79, anti-histidine detection
T42 sequence (peptide, C-terminus anchored to the cellulose membrane through a beta-alanine linker): RIFR

[24] = biological target: T43, sortilin peptide … (synthetic, soluble); test: SPOT length analysis, dot 11 (peptide here cellulose-bound), HRP-S-protein detection
T43 sequence (peptide): RIFRSSDFAKNF

[25] = biological target: T43, sortilin peptide … (synthetic, soluble); test: SPOT length analysis, dot 11 (peptide here cellulose-bound), anti-histidine detection

BLU Sprotein [1]: 76200 BLU | BLU Sprotein [2]: 168000 BLU | BLU Sprotein [3]: 126000 BLU | BLU Sprotein [4]: 127000 BLU | BLU Sprotein [5]: 448000 BLU | BLU Sprotein [6]: 29800 BLU | BLU His [7]: 141000 BLU | BLU Sprotein (SSDFAKNF): 16300 BLU | BLU Sprotein (RSSDFAK): 16400 BLU | BLU His [8]: 53400 BLU | BLU Sprotein (DFAKNFV): 17400 BLU | BLU Sprotein (RIFRSS): 94400 BLU | BLU Sprotein (RSSDFA): 15900 BLU | BLU Sprotein (SSDFAK): 15900 BLU | BLU Sprotein (SDFAKN [9]): 15600 BLU | BLU Sprotein (DFAKNF): 15200 BLU | BLU Sprotein (RIFRS): 137000 BLU | BLU Sprotein (KNFVQ): 15700 BLU | BLU Sprotein (FVQTD): 15100 BLU | BLU Sprotein (DFAK): 13300 BLU | BLU Sprotein (AKNF [10]): 13700 BLU | BLU Sprotein (KNFV): 13800 BLU | BLU His [11]: 19700 BLU | BLU His [12]: 45100 BLU | BLU His [13]: 24700 BLU | BLU His [14]: 19400 BLU | BLU His [15]: 16700 BLU | BLU His [16]: 17800 BLU | BLU His [17]: 20800 BLU | BLU His [18]: 21100 BLU | BLU His [19]: 30800 BLU | BLU His [20]: 116000 BLU | BLU His (FRSSDFAK): 19000 BLU | BLU His (DFAKNFVQ): 15500 BLU | BLU His (IFRSSDF): 24400 BLU | BLU His (SDFAKNF): 17200 BLU | BLU His (AKNFVQT): 17300 BLU | BLU His (SDFAKN [21]): 15100 BLU | BLU His (NFVQTD): 15400 BLU | BLU His (FRSSD): 15600 BLU | BLU His (RSSD): 15000 BLU | BLU His (AKNF [22]): 14600 BLU | BLU His (FVQT): 15600 BLU | BLU Sprotein (FAKNFV): 29600 BLU | BLU His [23]: 127000 BLU | BLU Sprotein [24]: 166000 BLU | BLU His [25]: 100000 BLU
B1: recombinant his-S-tagged pro-domain of human BDNF (residues Ala1-Arg110), from pET-30 Xa/LIC, E. coli (protein, not shown: small tags and cut ends)
chain: APMKEANIRGQGGLAYPGVRTHGTLESVNGPKAGSGLTSLADTFEHVIEELLDEDQKVRPNEENNKDADLYTSRVMLSSQVPLEPPLLFLLEEYKNYLDAANMSMRVRR
